Measurements: patent publication US20230272086A1 (CHIA TAI TIANQING PHARMACEUTICAL GROUP, published 2023)

B1: RG6149 (antibody Ab2 in CN104334582, prepared in-house) (antibody, human IgG2, kappa, V domains shown)
VH: EVQLVQSGAEVKKPGESLKISCKGSGYSFTNYWIGWVRQMPGKGLEWMGIIYPGNSDTRFSPSFQGQVTISADKSITTAYLQWSSLKASDTAMYYCARHGTSSDYYGLDVWGQGTTVTVSS
VL: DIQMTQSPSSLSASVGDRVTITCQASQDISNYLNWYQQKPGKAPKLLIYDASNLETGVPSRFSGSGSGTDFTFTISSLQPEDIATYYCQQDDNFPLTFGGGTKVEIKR
notes: Control anti-ST2 antibody
B2: GSK3772847 (antibody STLM208 in CN104411333, prepared in-house) (antibody, human IgG2, kappa, V domains shown)
VH: EVQLLESGGGLVQPGGSLRLSCAASGFTFSIYDMIWVRQAPGKGLEWVSSIRGEGGGTYYADSVKGRFTISRDNSKNTLYLQMNSLRAEDTAVYYCARDPWSTEGSFFVLDYWGQGTLVTVSS
VL: EIVLTQSPATLSLSPGERATLSCRASQSVDDDLAWYQQKPGQAPRLLIYDASNRATGIPARFSGSGSGTDFTLTISSLEPEDFAVYYCQQYITAPLTFGQGTKVEIKR
notes: Control anti-ST2 antibody
B3: Chimeric 31C8 (antibody, human IgG2, kappa, V domains shown)
VH: QVQLQQSGPELVRPGASVTLSCKASGYIFIDSEMHWVKQTPVHGLEWIGAIDPETGDTVYNQKFKGKATLTADKSSSTASMELSSLTSEDSAVYYCTGSTTDYYFAYWGQGTTLTVSS
VL: DIVMTQAAFSNPVTLGTSASISCRSSKSLLHSNGIIYLYWYLQKPGQSPQLLIYQMSNLASGVPDRFSSSGSGTDFTLRISRVEAEDVGVYYCAQNLELPFTFGSGTKLEIKR
notes: also called xi31C8
B4: Humanized 31C8-1.1 (antibody, human IgG2, kappa, V domains shown)
VH: EVQLVQSGAEVKKPGATVKISCKASGYIFIDSEMHWVQQAPGKGLEWMGAIDPETGDTVYAEKFQGRVTITADKSSSTAYMELSSLRSEDTAVYYCTGSTTDYYFAYWGQGTLVTVSS
VL: DIQMTQSPSSLSASVGDRVTITCRSSKSLLHSNGIIYLYWYQQKPGKAPKLLIYQLSNLASGVPSRFSSSGSGTDFTLTISSLQPEDFATYYCAQNLELPFTFGQGTKVEIKR
notes: also called hz31C8-1.1; hz31C81-1.1
B5: Humanized 31C8-1.2 (antibody, human IgG2, kappa, V domains shown)
VH: QVQLVQSGAKVKKPGATVKISCKASGYIFIDSEMHWVQQAPGKGLEWMGAIDPETGDTVYAKKFKGRVTITADKSSSTAYMELSSLRSEDTAVYYCTGSTTDYYFAYWGQGTLVTVSS
VL: DIQMTQSPSSLSASVGDRVTITCRSSKSLLHSNGIIYLYWYQQKPGKAPKLLIYQLSNLASGVPSRFSSSGSGTDFTLTISSLQPEDFATYYCAQNLELPFTFGQGTKVEIKR
notes: also called hz31C8-1.2; hz31C81-1.2

Assays:
[1] = target: T1, recombinant protein containing hST2 extracellular domain with mouse antibody heavy chain Fc tag (hST2-ECD-mFc) (human); assay: ELISA, plate coated with hST2-ECD-mFc
T1 construct: Used for SPR and for ELISA of chimeric and humanized antibodies; also called human ST2 antigen
T1 chain: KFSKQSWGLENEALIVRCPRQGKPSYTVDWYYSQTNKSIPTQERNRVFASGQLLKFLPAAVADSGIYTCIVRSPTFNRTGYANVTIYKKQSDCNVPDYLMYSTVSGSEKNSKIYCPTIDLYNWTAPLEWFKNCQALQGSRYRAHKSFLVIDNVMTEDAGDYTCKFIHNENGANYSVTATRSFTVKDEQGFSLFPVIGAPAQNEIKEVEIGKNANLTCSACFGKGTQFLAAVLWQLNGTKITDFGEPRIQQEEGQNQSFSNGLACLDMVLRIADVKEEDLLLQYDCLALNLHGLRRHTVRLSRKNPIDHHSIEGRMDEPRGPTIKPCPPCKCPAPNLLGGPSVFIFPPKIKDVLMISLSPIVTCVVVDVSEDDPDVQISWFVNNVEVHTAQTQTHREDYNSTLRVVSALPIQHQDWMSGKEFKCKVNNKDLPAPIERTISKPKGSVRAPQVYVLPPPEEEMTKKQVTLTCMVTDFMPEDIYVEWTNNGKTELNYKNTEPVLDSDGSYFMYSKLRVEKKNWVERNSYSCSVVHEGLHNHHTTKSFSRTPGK
Experimental: ST2 binding screening and analysis of antibodies were performed by ELISA using hST2-ECD-mFc (for assays of chimeric and humanized antibodies), hST2-ECD-hFc protein (for assays of hybridoma antibodies) and Cyno-ST2-his (Sino biological, 90915-C08H) as antigens. A high-adsorption 96-well plate (Costar, 9018) was coated with 2 µg/mL hST2-ECD-mFc or Cyno-ST2-his antigen at 100 µL/well and incubated overnight at 4° C. After the antigen not adsorbed was well washed off, the non-specific binding sites were blocked with a blocking buffer (PBS containing 2% bovine serum albumin). After the plate was washed three times with a washing buffer (PBS containing 0.05% (v/v) Tween 20), the anti-ST2 antibodies (serially diluted 3-fold from an initial concentration of 10 nM to 8 concentrations: 3.333 nM, 1.111 nM, 0.370 nM, 0.123 nM, 0.041 nM, 0.014 nM, 0.005 nM, and 0.002 nM) were added at 100 µL/well, and the plate was incubated at room temperature for 1 h. After the plate was washed with the washing buffer, a horseradish peroxidase (HRP)-conjugated secondary antibody was added, and the plate was incubated for another 60 min. After the plate was washed with the washing buffer, the substrate TMB solution (Thermo, 00-4201-56) was added at 100 µL/well, and the plate was incubated at room temperature for 2 min. A stop solution (2 N H₂SO₄) was added at 100 µL/well to terminate the reactions. Colorimetric signals were generated and read at 450 nm using a microplate reader (PE, Envision). The data were analyzed using GraphPad Prism5, and the EC₅₀ values were calculated.
(§1) The humanized antibodies hz31C81-1.1 (the amino acid sequence of the heavy chain set forth in SEQ ID NO: 75 and the amino acid sequence of the light chain set forth in SEQ ID NO: 81) and hz31C8-1.2 (the amino acid sequence of the heavy chain set forth in SEQ ID NO: 77 and the amino acid sequence of the light chain set forth in SEQ ID NO: 81) were subjected to affinity, binding, blocking and cell function analyses using the methods described in Example 4, Example 5, Example 6, Example 7, Example 8, Example 9 and Example 10.

[2] = target: recombinant protein containing hST2 extracellular domain with human antibody heavy chain Fc tag (hST2-ECD-hFc) (human); assay: competition ELISA, coated hST2-ECD-hFc, antibody then biotin-labeled hIL33 Avitag (competitor)
Experimental: Whether the anti-ST2 antibodies were able to block the binding of hIL33 to hST2 was determined based on ELISA. A high-adsorption 96-well plate was coated with 2 µg/mL hST2-ECD-hFc at 100 µL/well and incubated overnight at 4° C. After the antigen not adsorbed was well washed off, the non-specific binding sites were blocked with a blocking buffer (PBST containing 1% bovine serum albumin). After the plate was washed three times with a washing buffer (PBST, PBS containing 0.05% (v/v) Tween 20), the anti-ST2 antibodies (serially diluted 2-fold from an initial concentration of 66.67 nM to 8 concentrations) were added at 100 µL/well, and the plate was incubated at 37° C. for 1 h After the plate was washed 3 times with the washing buffer, 100 µL of biotin-labeled hIL33 Avitag (with a concentration of 0.1 µg/mL) was added to each well, and the plate was incubated at 37° C. for 1 h. After the plate was washed 3 times with the washing buffer, a 1:1000 diluted secondary antibody Avidin HRP (Jackson immunoresearch, 016-030-084) was added at 100 µL/well, and the plate was incubated at room temperature for 1 h After the plate was washed with the washing buffer, the substrate TMB solution (Thermo, 00-4201-56) was added at 100 µL/well, and the plate was incubated at room temperature for 3 min. 50 µL of a stop solution (2 N H₂SO₄) was added to terminate the reactions. Colorimetric signals were generated and read at 450 nm using a plate reader (PE, Envision). The data were analyzed using GraphPad Prism5, and the IC₅₀ values were calculated.
as §1

[3] = target: T1, recombinant protein containing hST2 …; assay: SPR (Biacore T200), hST2-ECD-mFc captured by anti-mouse IgG on CM5, antibody as analyte, 1:1 model
Experimental: The reaction signals were detected in real time using a Biacore instrument (Cytiva, BiacoreT200), and then an association-dissociation curve was obtained. After the completion of dissociation in each cycle, the biochip was regenerated with a regeneration solution for the next capture; the procedure was repeated until the affinity of the different antibodies for ST2 was determined. The acquired data were finally analyzed using the GE BIAevaluation software with a 1:1 (Langmuir) binding model to determine the association rate constants ka (kon) and the dissociation rate constants kd (koff), and the dissociation constants KD were given by KD = kd/ka. The determined affinity of the anti-ST2 antibody for human ST2 antigen (hST2-ECD-mFc), cynomolgus monkey ST2 antigen (Cyno-ST2-his, Sino biological, 90915-C08H) and the determined affinity of the anti-ST2 chimeric antibodies for ST2 were shown in Table 5.
The humanized antibodies hz31C81-1.1 (the amino acid sequence of the heavy chain set forth in SEQ ID NO: 75 and the amino acid sequence of the light chain set forth in SEQ ID NO: 81) and hz31C8-1.2 (the amino acid sequence of the heavy chain set forth in SEQ ID NO: 77 and the amino acid sequence of the light chain set forth in SEQ ID NO: 81) were subjected to affinity, binding, blocking and cell function analyses using the methods described in Example 4, Example 5, Example 6, Example 7, Example 8, Example 9 and Example 10. In the present disclosure, “hz” and “xi” denote humanized antibodies and chimeric antibodies, respectively; for example, “hz31C81-1.1” and “hz31C81-1.2” represent humanized 31C81-1.1 and 31C81-1.2 antibodies, and “xi31C8” represents a chimeric 31C8 antibody.

Binder	EC50 [1]	IC50 [2]	Kd [3]
B1	112 pM	2150 pM	128 pM
B2	127 pM	2530 pM	95.8 pM
B3	86.5 pM	1930 pM	129 pM
B4	87.9 pM	1890 pM	83.6 pM
B5	93.7 pM	2240 pM	145 pM
